According to article PMC12502808, “Catalytic His-loop flexibility drives high activity in hyperthermophilic esterase EstE1 while preserving structural stability” (Microbiology Spectrum, 2025):
Where a chain is given by its changes, count along the chain named. Names and notes keep the numbering of the source.

Columns and labels:
[1] = molecular target: EstE1 wild type (hyperthermophilic esterase); assay: SEC; Superdex 200 column equilibrated with 50 mM sodium phosphate, 150 mM NaCl, pH 7.0; molecular weight determination of the purified protein
[2] = test system: CC(=O)Oc1ccc([N+](=O)[O-])cc1; assay: purified protein; format: biochemical, Pseudomonas sp. ECU1011; conditions: 100 mM Tris-HCl, 100 mM NaCl, pH 7.5, optimal temperature (45-50°C for WT, 30°C for mutants)
purified protein [3] = substrate: CC(=O)Oc1ccc([N+](=O)[O-])cc1; assay: purified protein; format: biochemical, Pseudomonas sp. ECU1011; conditions: 100 mM Tris-HCl, 100 mM NaCl, pH 7.5, optimal temperature (45-50°C)
purified protein [4] = substrate: CCCCCC(=O)Oc1ccc([N+](=O)[O-])cc1; assay: purified protein; format: biochemical, uncultured archaeon; conditions: 100 mM Tris-HCl, 100 mM NaCl, pH 7.5, optimal temperature 70°C

EstE1 wild type (hyperthermophilic esterase) (enzyme)
stoichiometry N [1]: 2

rPPE (Pseudomonas sp. ECU1011; D287E)
Km [2]: 6 ± 1 µM | kcat [2]: 2.1 ± 0.1 s⁻¹ | kcat/Km [2]: 330000 ± 20000 M⁻¹ s⁻¹

rPPE (Pseudomonas sp. ECU1011; D287G)
Km [2]: 114 ± 2 µM | kcat [2]: 13 ± 1 s⁻¹ | kcat/Km [2]: 110000 ± 10000 M⁻¹ s⁻¹

B1: rPPE (Pseudomonas sp. ECU1011) (protein)
chain: GSPGVEQHTKAFLEALEQGGGKPLEQLSPKDARAVLTGAQASVKVDLSGIEVKERTIQANGQSIKLQVVRPANVKGELPVFMFFHGGGWVLGDFPTHQRLIRDLVVGSGAVAVYVDYTPSPESHYPTAINQAYAATQWVAEHGKEIGVDGKRLAVAGNSVGGNMAAVVALKAKEAGTPALRFQLLLWPVTDASFETASYKQFADGHFLTTGMMKWFWDNYTTDAKAREQIYASPLRASSEQLKGLPPALVQTAEFDVLRDEGEAYARKLNAAGVTVTSVRYNGMIHDYGLLNPLSQVPAVKAAMRQAGTELKVHLQ
Km (purified protein [3]): 33 ± 1 µM | kcat (purified protein [3]): 2 ± 0.1 s⁻¹ | kcat/Km (purified protein [3]): 60000 ± 10000 M⁻¹ s⁻¹

B2: EstE1 (uncultured archaeon) (protein)
chain: MPLDPQIKPILERIRALSIAASPQELRRQVEEQSRLLTAAVQEPIAETRDVHIPVSGGSIRARVYFPKKAAGLPAVLYYHGGGFVFGSIETHDHICRRLSRLSDSVVVSVDYRLAPEYKFPTAVEDAYAALKWVADRADELGVDPDRIAVAGDSAGGNLAAVVSILDRNSGEKLVKKQVLIYPVVNMTGVPTASLVEFGVAETTSLPIELMVWFGRQYLKRPEEAYDFKASPLLADLGGLPPALVVTAEYDPLRDEGELYAYKMKASGSRAVAVRFAGMVHGFVSFYPFVDAGREALDLAAASIRSGLQPS
Km (purified protein [4]): 1520 ± 17 µM | kcat (purified protein [4]): 2900 ± 1 s⁻¹ | kcat/Km (purified protein [4]): 1.91e+06 ± 20000 M⁻¹ s⁻¹

B3: EstE1 (uncultured archaeon; G282N) (protein)
chain: B2 chain with G282N
Km (purified protein [4]): 1330 ± 79 µM | kcat (purified protein [4]): 1980 ± 84 s⁻¹ | kcat/Km (purified protein [4]): 1.49e+06 ± 30000 M⁻¹ s⁻¹

B4: EstE1 (uncultured archaeon; G282Q) (protein)
chain: B2 chain with G282Q
Km (purified protein [4]): 745 ± 40 µM | kcat (purified protein [4]): 950 ± 27 s⁻¹ | kcat/Km (purified protein [4]): 1.28e+06 ± 30000 M⁻¹ s⁻¹
